What was measured:
[1] = target: GL50 (ICOS-ligand) on mouse cells (WEHI 231, undifferentiated CCE ES cells, Balb/C and RAG1 -/- splenocytes) (mouse) (UniProt Q9JHJ8); assay: flow cytometry, titered staining of WEHI 231 cells
[2] = target: GL50 (ICOS-ligand) on mouse cells (WEHI 231, undifferentiated CCE ES cells, Balb/C and RAG1 -/- splenocytes) (mouse) (UniProt Q9JHJ8); assay: flow cytometry, Balb/C splenocytes, anti-CD3 stained subset
[3] = target: GL50 (ICOS-ligand) on mouse cells (WEHI 231, undifferentiated CCE ES cells, Balb/C and RAG1 -/- splenocytes) (mouse) (UniProt Q9JHJ8); assay: flow cytometry, Balb/C splenocytes, anti-CD4 stained subset
[4] = target: GL50 (ICOS-ligand) on mouse cells (WEHI 231, undifferentiated CCE ES cells, Balb/C and RAG1 -/- splenocytes) (mouse) (UniProt Q9JHJ8); assay: flow cytometry, Balb/C splenocytes, anti CD40 stained subset
[5] = target: GL50 (ICOS-ligand) on mouse cells (WEHI 231, undifferentiated CCE ES cells, Balb/C and RAG1 -/- splenocytes) (mouse) (UniProt Q9JHJ8); assay: flow cytometry, Balb/C splenocytes, anti CD69 stained subset
[6] = target: GL50 (ICOS-ligand) on mouse cells (WEHI 231, undifferentiated CCE ES cells, Balb/C and RAG1 -/- splenocytes) (mouse) (UniProt Q9JHJ8); assay: flow cytometry, Balb/C splenocytes, anti-CD19 stained subset
[7] = target: GL50 (ICOS-ligand) on mouse cells (WEHI 231, undifferentiated CCE ES cells, Balb/C and RAG1 -/- splenocytes) (mouse) (UniProt Q9JHJ8); assay: flow cytometry, Balb/C splenocytes, anti-CD24 stained subset
[8] = target: GL50 (ICOS-ligand) on mouse cells (WEHI 231, undifferentiated CCE ES cells, Balb/C and RAG1 -/- splenocytes) (mouse) (UniProt Q9JHJ8); assay: flow cytometry, Balb/C splenocytes, anti-CD8a stained subset
[9] = target: GL50 (ICOS-ligand) on mouse cells (WEHI 231, undifferentiated CCE ES cells, Balb/C and RAG1 -/- splenocytes) (mouse) (UniProt Q9JHJ8); assay: flow cytometry, RAG1-/- splenocytes, anti-CD4 stained subset
[10] = target: GL50 (ICOS-ligand) on mouse cells (WEHI 231, undifferentiated CCE ES cells, Balb/C and RAG1 -/- splenocytes) (mouse) (UniProt Q9JHJ8); assay: flow cytometry, Balb/C splenocytes, anti-CD11B stained subset
[11] = target: GL50 (ICOS-ligand) on mouse cells (WEHI 231, undifferentiated CCE ES cells, Balb/C and RAG1 -/- splenocytes) (mouse) (UniProt Q9JHJ8); assay: flow cytometry, Balb/C splenocytes, anti-CD11C stained subset
[12] = target: GL50 (ICOS-ligand) on mouse cells (WEHI 231, undifferentiated CCE ES cells, Balb/C and RAG1 -/- splenocytes) (mouse) (UniProt Q9JHJ8); assay: flow cytometry, RAG1-/- splenocytes, anti CD69 stained subset
[13] = target: GL50 (ICOS-ligand) on mouse cells (WEHI 231, undifferentiated CCE ES cells, Balb/C and RAG1 -/- splenocytes) (mouse) (UniProt Q9JHJ8); assay: flow cytometry, RAG1-/- splenocytes, anti-CD24 stained subset
[14] = target: GL50 (ICOS-ligand) on mouse cells (WEHI 231, undifferentiated CCE ES cells, Balb/C and RAG1 -/- splenocytes) (mouse) (UniProt Q9JHJ8); assay: flow cytometry, Balb/C splenocytes, anti-pan NK stained subset
[15] = target: GL50 (ICOS-ligand) on mouse cells (WEHI 231, undifferentiated CCE ES cells, Balb/C and RAG1 -/- splenocytes) (mouse) (UniProt Q9JHJ8); assay: flow cytometry, RAG1-/- splenocytes, anti-CD11B stained subset
[16] = target: GL50 (ICOS-ligand) on mouse cells (WEHI 231, undifferentiated CCE ES cells, Balb/C and RAG1 -/- splenocytes) (mouse) (UniProt Q9JHJ8); assay: flow cytometry, RAG1-/- splenocytes, anti-CD11C stained subset
[17] = target: GL50 (ICOS-ligand) on mouse cells (WEHI 231, undifferentiated CCE ES cells, Balb/C and RAG1 -/- splenocytes) (mouse) (UniProt Q9JHJ8); assay: flow cytometry, RAG1-/- splenocytes, anti-pan NK stained subset
[18] = target: GL50 (ICOS-ligand) on mouse cells (WEHI 231, undifferentiated CCE ES cells, Balb/C and RAG1 -/- splenocytes) (mouse) (UniProt Q9JHJ8); assay: flow cytometry, Balb/C splenocytes, anti class II stained subset
[19] = target: GL50 (ICOS-ligand) on mouse cells (WEHI 231, undifferentiated CCE ES cells, Balb/C and RAG1 -/- splenocytes) (mouse) (UniProt Q9JHJ8); assay: flow cytometry, RAG1-/- splenocytes, anti class II stained subset
[20] = target: GL50 (ICOS-ligand) on mouse cells (WEHI 231, undifferentiated CCE ES cells, Balb/C and RAG1 -/- splenocytes) (mouse) (UniProt Q9JHJ8); assay: flow cytometry, Balb/C splenocytes, anti-CD45R/B220 stained subset
[21] = target: GL50 (ICOS-ligand) on mouse cells (WEHI 231, undifferentiated CCE ES cells, Balb/C and RAG1 -/- splenocytes) (mouse) (UniProt Q9JHJ8); assay: flow cytometry, RAG1-/- splenocytes, anti-CD45R/B220 stained subset
[22] = target: GL50 (ICOS-ligand) on mouse cells (WEHI 231, undifferentiated CCE ES cells, Balb/C and RAG1 -/- splenocytes) (mouse) (UniProt Q9JHJ8); assay: flow cytometry, indirect staining of undifferentiated CCE ES cells
[23] = target: GL50 (ICOS-ligand) on mouse cells (WEHI 231, undifferentiated CCE ES cells, Balb/C and RAG1 -/- splenocytes) (mouse) (UniProt Q9JHJ8); assay: flow cytometry, RAG1-/- splenocytes, CD11b+ subset (text value; the table prints 31%)

concentration from which staining was minimally detectable [1]: 1 µg/mL | % ICOS-Ig positive [2]: 10% | % ICOS-Ig positive [3]: 8% | % ICOS-Ig positive [4]: 97% | % ICOS-Ig positive [5]: 25% | % ICOS-Ig positive [6]: 97% | % ICOS-Ig positive [7]: 94% | % ICOS-Ig positive [8]: 10% | % ICOS-Ig positive [9]: 45% | % ICOS-Ig positive [10]: 26% | % ICOS-Ig positive [11]: 43% | % ICOS-Ig positive [12]: 5% | % ICOS-Ig positive [13]: 28% | % ICOS-Ig positive [14]: 20% | % ICOS-Ig positive [15]: 31% | % ICOS-Ig positive [16]: 55% | % ICOS-Ig positive [17]: 3% | % ICOS-Ig positive [18]: 95% | % ICOS-Ig positive [19]: 3% | % ICOS-Ig positive [20]: 97% | % ICOS-Ig positive [21]: 5% | fluorescence shift over background [22]: 0.5 log | % ICOS-Ig positive [23]: 35%
B1: mICOS-mIgG2am (Fc fusion)
chain: EINGSADHRMFSFHNGGVQISCKYPETVQQLKMRLFREREVLCELTKTKGSGNAVSIKNPMLCLYHLSNNSVSFFLNNPDSSQGSYYFCSLSIFDPPPFQERNLSGGYLHIYESQLCCQLKLEPRGPTIKPCPPCKCPAPNLEGGPSVFIFPPKIKDVLMISLSPIVTCVVVDVSEDDPDVQISWFVNNVEVHTAQTQTHREDYNSTLRVVSALPIQHQDWMSGKAFACAVNNKDLPAPIERTISKPKGSVRAPQVYVLPPPEEEMTKKQVTLTCMVTDFMPEDIYVEWTNNGKTELNYKNTEPVLDSDGSYFMYSKLRVEKKNWVERNSYSCSVVHEGLHNHHTTKSFSRTPGK

— patent US20040054158A1
